Laboratory results: patent US10323078B2, “Isolated peptides and fragments thereof from fibrinogen for use as drugs, particularly in skin inflammatory diseases” (Universite Paris Descartes, priority 2015, dated 2019)

What was measured:
Type in all cases: cell-based, human
Settings in all cases: 0.87 to 7 μM
[1] = system: MRC5 cells; test: IL-8 production by P. acnes-stimulated MRC5 (ELISA)
Protocol: FIG. 15: Dose-dependent inhibition of IL-8 production by fibroblast stimulated by P. acnes pre-treated by recombinant peptide. MRC5 cells were incubated for 18 h with P. acnes RON strain at a concentration adjusted to 0.2 of absorbance at 600 nm (blue bar) and with P. acnes pretreated with recombinant peptide Fg1 (light gray bar) and Fg2 (dark gray bar). IL-8 concentration was measured by ELISA as described in Materials and Methods. Control experiment was done on unstimulated HaCaT cell (red bar). Data are means±S.D. of three separate experiments. Statistical significance is indicated by * (P<0.05), ** (P<0.01), *** (P<0.001), and **** (P<0.0001), respectively.
(§1) For experiences of stimulation with P. acnes, cells were incubated with the P. acnes suspension adjusted at the appropriate concentration, pre-treated for 1 h at 37° C. or not with fibrinogen recombinant peptides Fg1 and Fg2 at the concentrations 0.87, 1.75, 3.5 or 7 μM for the desired period of time at 37° C. in 5% CO2.
(§2) Human IL-1ß, IL-8, IL-12, hBD-2, and TNF-α protein concentration was measured in the supernatants of stimulated cells using various ELISA Set kits (Ready-Set-Go kit from eBioscience for acne experiments, and for psoriasis experiments the Duo set IL-8 kit from R&D Systems and the BD-2 Human Development (hBD-2) from Peprotech) according to the manufacturer's instructions. We used serial dilutions of recombinant human IL-1ß, IL-8, IL-12 and TNF-α for standard curve. The optical density was determined at 450 nm at a wavelength correction of 540 nm.
(§3) To assess the efficacy of Fg1 recombinant peptide, the production of O2^∘− and H2O2 by HaCaT cells NHDK, THP-1, MRC5 and HDF stimulated by pretreated P. acnes strains 6919, RON and PIE was measured. The amount of ROS produced was compared to that produced by the stimulated cells with untreated bacteria. Production baseline was obtained by measuring ROS on unstimulated cells. The production of IL-1ß, IL-8, IL-12 and TNF-α was also measured in all conditions cited above. The measurement of the production of ROS is performed by spectrofluorimetry in the presence of specific fluorochromes directly on the monolayer cell. Measurement of cytokine production was performed in parallel on the cell culture supernatant.
(§4) Two sets of experiments were implemented: 1) The cells were stimulated (18 h at 37° C.) by P. acnes strains previously pretreated with Fg1 and Fg2 peptides at the final concentrations ranging from 0.87 to 7 μM for 1 h at 37° C.; and 2) The cells were pretreated first with Fg1 and Fg2 peptides at the final concentrations ranging from 0.87 to 7 μM for 24 h at 37° C. and stimulated (18 h at 37° C.) by P. acnes strains.

[2] = system: ThP1 cells; test: H2O2 production by P. acnes-stimulated ThP1
Protocol: as §1
All cells lines (5·10^4 to 10^5 cells/well) were seeded in 96-well plates (Corning Costar, Brumath, France) and treated as previously described. After stimulation, cells were washed three times in PBS and incubated with 100 μl per wells of 5 μM DHE (for determination of O2^●−) or 5 μM H2-DCFDA (for determination of H2O2) for 30 min as described previously and fluorescence intensity was recorded every hour over a period of 5 h. Fluorescence excitation/emission maxima were for DHE: 480/610 nm and for H2-DCFDA: 507/525 nm. At the end of the experiment, the number of adherent cells was evaluated by the crystal violet assay as described below. O2^●−, and H2O2 were assayed by spectrofluorimetry on a Fusion spectrofluorimeter (PackardBell, Paris, France). Levels of ROS were calculated in each sample as follows: reactive oxygen species rate (arbitrary units/min/10^6 cells)=(fluorescence intensity [arbitrary units] at T5h—fluorescence intensity [arbitrary units] at To/300 minutes/number of adherent cells as measured by the crystal violet assay, and were expressed as arbitrary unit (A.U.).
as §3, §4
To assess the efficacy of the small Fg1-related peptide, the production of H2O2 by several cell lines (HaCaT, NHDK, THP-1, MRC5 and HDF) stimulated by three P. acnes strains 6919, RON and PIE was measured, in presence or not with the small peptides. The amount of H2O2 produced is compared to that produced by the stimulated cells with untreated bacteria. Production baseline is obtained by measuring H2O2 on unstimulated cells. The measurement of the production of H2O2 is performed by spectrofluorimetry in the presence of specific fluorochromes directly on the monolayer cell.
Two sets of experiments have been implemented: • I) The cells are stimulated (18 h at 37° C.) by P. acnes strains previously pretreated with Fg1.1, Fg1.2, Fg1.3, Fg1.4, and Fg1.5 small peptides at the final concentrations ranging from 2.5 to 20 μM for 1 h at 37° C.; • II) The cells are pretreated first with the five small peptides at the final concentrations ranging from 2.5 to 20 μM for 24 h at 37° C. and stimulated (18 h at 37° C.) by P. acnes strains.

[3] = system: HDF cells; test: IL-8 production by P. acnes-stimulated HDF (ELISA)
Protocol: as §1, §2, §3, §4

[4] = system: ThP1 cells; test: TNF-α production by P. acnes-stimulated ThP1 (ELISA)
Protocol: as §1, §2, §3, §4

[5] = P. acnes 6919, set I, bacteria first pretreated
[6] = P. acnes 6919, set II, cells first pretreated
[7] = P. acnes PIE, set I, bacteria first pretreated
[8] = P. acnes PIE, set II, cells first pretreated
[9] = P. acnes RON, set I, bacteria first pretreated
[10] = P. acnes RON, set II, cells first pretreated

B1: MKRMVSWSFHKLKTMKHLLLLLLCVFLVKSQGVNDNEEGFFSARGHRPLDKKREEAPSLRPAPPPISGGGYRARPAKAAATQKKVERKAPDAGGCLHADPDLGVLC (protein)
chain: MKRMVSWSFHKLKTMKHLLLLLLCVFLVKSQGVNDNEEGFFSARGHRPLDKKREEAPSLRPAPPPISGGGRARPAKAAATQKKVERKAPDAGGCLHADPDLGVLCMKRMVSWSFHKLKTMKHLLLLLLCVFLVKSQGVNDNEEGFFSARGHRPLDKKREEAPSLRPAPPPISGGGYRARPAKAAATQKKVERKAPDAGGCLHADPDLGVLC
modifications: GST fusion; fragment Fg1
notes: fragment of Bß chain of human fibrinogen having 106 amino acids; recombinant GST-fused peptide expressed in E. coli
pos: Inhibition of Interleukine 8 (IL-8) production [1, 5] | Inhibition of Interleukine 8 (IL-8) production [1, 6] | Inhibition of Interleukine 8 (IL-8) production [1, 7] | Inhibition of Interleukine 8 (IL-8) production [1, 8] | Inhibition of Interleukine 8 (IL-8) production [1, 9] | Inhibition of Interleukine 8 (IL-8) production [1, 10] | Inhibition of Hydrogen peroxide (H2O2) production [2, 5] | Inhibition of Hydrogen peroxide (H2O2) production [2, 6] | Inhibition of Hydrogen peroxide (H2O2) production [2, 7] | Inhibition of Hydrogen peroxide (H2O2) production [2, 8] | Inhibition of Hydrogen peroxide (H2O2) production [2, 9] | Inhibition of Hydrogen peroxide (H2O2) production [2, 10] | Inhibition of Interleukine 8 (IL-8) production [3, 5] | Inhibition of Interleukine 8 (IL-8) production [3, 6] | Inhibition of Interleukine 8 (IL-8) production [3, 7] | Inhibition of Interleukine 8 (IL-8) production [3, 8] | Inhibition of Interleukine 8 (IL-8) production [3, 9] | Inhibition of Interleukine 8 (IL-8) production [3, 10] | Inhibition of Interleukine TNF alpha (TNF-α) production [4, 5] | Inhibition of Interleukine TNF alpha (TNF-α) production [4, 6] | Inhibition of Interleukine TNF alpha (TNF-α) production [4, 7] | Inhibition of Interleukine TNF alpha (TNF-α) production [4, 8] | Inhibition of Interleukine TNF alpha (TNF-α) production [4, 9] | Inhibition of Interleukine TNF alpha (TNF-α) production [4, 10]
